B1: ALKBH3 (natural protein, human, UniProt Q96Q83 1-286, looked up)
chain: MEEKRRRARVQGAWAAPVKSQAIAQPATTAKSHLHQKPGQTWKNKEHHLSDREFVFKEPQQVVRRAPEPRVIDREGVYEISLSPTGVSRVCLYPGFVDVKEADWILEQLCQDVPWKQRTGIREDITYQQPRLTAWYGELPYTYSRITMEPNPHWHPVLRTLKNRIEENTGHTFNSLLCNLYRNEKDSVDWHSDDEPSLGRCPIIASLSFGATRTFEMRKKPPPEENGDYTYVERVKIPLDHGTLLIMEGATQADWQHRVPKEYHSREPRVNLTFRTVYPDPRGAPW
notes: ALKBH3; protein on the human proteome microarray; source: spotted on the HuProt human proteome microarray
B2: BPHL (natural protein, human, UniProt Q86WA6 38-291, looked up)
chain: SVTSAKVAVNGVQLHYQQTGEGDHAVLLLPGMLGSGETDFGPQLKNLNKKLFTVVAWDPRGYGHSRPPDRDFPADFFERDAKDAVDLMKALKFKKVSLLGWSDGGITALIAAAKYPSYIHKMVIWGANAYVTDEDSMIYEGIRDVSKWSERTRKPLEALYGYDYFARTCEKWVDGIRQFKHLPDGNICRHLLPRVQCPALIVHGEKDPLVPRFHADFIHKHVKGSRLHLMPEGKHNLHLRFADEFNKLAEDFLQ
notes: BPHL; protein on the human proteome microarray; source: spotted on the HuProt human proteome microarray
B3: C17orf82 (natural protein, human, UniProt Q86X59 1-251, looked up)
chain: MGRPLEGQPLRALDLYPEPAFLRSGKDPKSSPASSPSFAVLGPEVRSTGGQAGSRRRPSAPCSQDRAAAEGAPALLGGSPSSGSPGHPPGSAFGVEAGCRALNVSEHARGGFALGLPFGLSGGAYLFLLLDGAGDPKPTPEAPISSADGRAWFPSESSWQLPQLPAGSTSGSEPRARPGLGPRQLLTGPRDGAAGQGPGRGLTARLGREREIDCGPRQAGHGGTATDTGRAGSGARHRPPRDRGTPGLRTH
notes: C17orf82; protein on the human proteome microarray; source: spotted on the HuProt human proteome microarray
B4: C21orf59 (natural protein, human, UniProt P57076 1-290, looked up)
chain: MVLLHVKRGDESQFLLQAPGSTELEELTVQVARVYNGRLKVQRLCSEMEELAEHGIFLPPNMQGLTDDQIEELKLKDEWGEKCVPSGGAVFKKDDIGRRNGQAPNEKMKQVLKKTIEEAKAIISKKQVEAGVCVTMEMVKDALDQLRGAVMIVYPMGLPPYDPIRMEFENKEDLSGTQAGLNVIKEAEAQLWWAAKELRRTKKLSDYVGKNEKTKIIAKIQQRGQGAPAREPIISSEEQKQLMLYYHRRQEELKRLEENDDDAYLNSPWADNTALKRHFHGVKDIKWRPR
notes: C21orf59; protein on the human proteome microarray; source: spotted on the HuProt human proteome microarray
B5: TTC9 (natural protein, human, UniProt Q92623 1-222, looked up)
chain: MERKGSAAGAKGNPSPPAAGEGQRPPPPLCVPGGGGGAPARGQVGAAAEPAELIRRAHEFKSQGAQCYKDKKFREAIGKYHRALLELKGLLPPPGERERDSRPASPAGALKPGRLSEEQSKTVEAIEIDCYNSLAACLLQAELVNYERVKEYCLKVLKKEGENFKALYRSGVAFYHLGDYDKALYYLKEARTQQPTDTNVIRYIQLTEMKLSRCSQREKEAM
notes: TTC9; protein on the human proteome microarray; source: spotted on the HuProt human proteome microarray
B6: C1orf74 (natural protein, human, UniProt Q96LT6 1-269, looked up)
chain: MLLLDLMSSPSPQLLVAAAQQTLGMGKRRSPPQAICLHLAGEVLAVARGLKPAVLYDCNCAGASELQSYLEELKGLGFLTFGLHILEIGENSLIVSPEHVCQHLEQVLLGTIAFVDVSSCQRHPSVCSLDQLQDLKALVAEIITHLQGLQRDLSLAVSYSRLHSSDWNLCTVFGILLGYPVPYTFHLNQGDDNCLALTPLRVFTARISWLLGQPPILLYSFSVPESLFPGLRDILNTWEKDLRTRFRTQNDFADLSISSEIVTLPAVAL
notes: C1orf74; protein on the human proteome microarray; source: spotted on the HuProt human proteome microarray
B7: WBP2NL (natural protein, human, UniProt Q6ICG8 1-309, looked up)
chain: MAVNQSHTENRRGALIPNGESLLKRSPNVELSFPQRSEGSNVFSGRKTGTLFLTSYRVIFITSCSISDPMLSFMMPFDLMTNLTVEQPVFAANFIKGTIQAAPYGGWEGQATFKLVFRNGDAIEFAQLMVKAASAAARGFPLRTLNDWFSSMGIYVITGEGNMCTPQMPCSVIVYGAPPAGYGAPPPGYGAPPAGYGAQPVGNEGPPVGYRASPVRYGAPPLGYGAPPAGYGAPPLGYGAPPLGYGTPPLGYGAPPLGYGAPPAGNEGPPAGYRASPAGSGARPQESTAAQAPENEASLPSASSSQVHS
notes: WBP2NL; protein on the human proteome microarray; source: spotted on the HuProt human proteome microarray
B8: XAGE3 (natural protein, human, UniProt Q8WTP9 1-111, looked up)
chain: MIWRGRSTYRPRPRRSVPPPELIGPMLEPGDEEPQQEEPPTESRDPAPGQEREEDQGAAETQVPDLEADLQELSQSKTGGECGNGPDDQGKILPKSEQFKMPEGGDRQPQV
notes: XAGE3; protein on the human proteome microarray; source: spotted on the HuProt human proteome microarray
B9: ALKBH2 (natural protein, human, UniProt Q6NS38 1-261, looked up)
chain: MDRFLVKGAQGGLLRKQEEQEPTGEEPAVLGGDKESTRKRPRREAPGNGGHSAGPSWRHIRAEGLDCSYTVLFGKAEADEIFQELEKEVEYFTGALARVQVFGKWHSVPRKQATYGDAGLTYTFSGLTLSPKPWIPVLERIRDHVSGVTGQTFNFVLINRYKDGCDHIGEHRDDERELAPGSPIASVSFGACRDFVFRHKDSRGKSPSRRVAVVRLPLAHGSLLMMNHPTNTHWYHSLPVRKKVLAPRVNLTFRKILLTKK
notes: ALKBH2; protein on the human proteome microarray; source: spotted on the HuProt human proteome microarray
B10: C11orf1 (natural protein, human, UniProt Q9H5F2 1-150, looked up)
chain: MAASQCLCCSKFLFQRQNLACFLTNPHCGSLVNADGHGEVWTDWNNMSKFFQYGWRCTTNENTYSNRTLMGNWNQERYDLRNIVQPKPLPSQFGHYFETTYDTSYNNKMPLSTHRFKREPHWFPGHQPELDPPRYKCTEKSTYMNSYSKP
notes: C11orf1; protein on the human proteome microarray; source: spotted on the HuProt human proteome microarray
B11: TTC9C (natural protein, human, UniProt Q8N5M4 1-171, looked up)
chain: MEKRLQEAQLYKEEGNQRYREGKYRDAVSRYHRALLQLRGLDPSLPSPLPNLGPQGPALTPEQENILHTTQTDCYNNLAACLLQMEPVNYERVREYSQKVLERQPDNAKALYRAGVAFFHLQDYDQARHYLLAAVNRQPKDANVRRYLQLTQSELSSYHRKEKQLYLGMFG
notes: TTC9C; protein on the human proteome microarray; source: spotted on the HuProt human proteome microarray
B12: BLVRB (natural protein, human, UniProt P30043 1-206, looked up)
chain: MAVKKIAIFGATGQTGLTTLAQAVQAGYEVTVLVRDSSRLPSEGPRPAHVVVGDVLQAADVDKTVAGQDAVIVLLGTRNDLSPTTVMSEGARNIVAAMKAHGVDKVVACTSAFLLWDPTKVPPRLQAVTDDHIRMHKVLRESGLKYVAVMPPHIGDQPLTGAYTVTLDGRGPSRVISKHDLGHFMLRCLTTDEYDGHSTYPSHQYQ
notes: BLVRB; protein on the human proteome microarray; source: spotted on the HuProt human proteome microarray
B13: ANXA3 (natural protein, human, UniProt P12429 1-323, looked up)
chain: MASIWVGHRGTVRDYPDFSPSVDAEAIQKAIRGIGTDEKMLISILTERSNAQRQLIVKEYQAAYGKELKDDLKGDLSGHFEHLMVALVTPPAVFDAKQLKKSMKGAGTNEDALIEILTTRTSRQMKDISQAYYTVYKKSLGDDISSETSGDFRKALLTLADGRRDESLKVDEHLAKQDAQILYKAGENRWGTDEDKFTEILCLRSFPQLKLTFDEYRNISQKDIVDSIKGELSGHFEDLLLAIVNCVRNTPAFLAERLHRALKGIGTDEFTLNRIMVSRSEIDLLDIRTEFKKHYGYSLYSAIKSDTSGDYEITLLKICGGDD
notes: ANXA3; protein on the human proteome microarray; source: spotted on the HuProt human proteome microarray

The target of the assay is T1, OTULIN (OTU deubiquitinase with linear linkage specificity, FAM105B), His-tagged, biotin-labelled (human, UniProt Q96BN8 1-352, biotin (label; sites not stated)).
T1 construct: OTULIN (FAM105B), cDNA in pET28a; also called HIS-OTULIN; source: E. coli BL21 (DE3), purified (His-tag Purification Resin), labelled with biotin; not shown: His6, N-terminal, kept
Nature of the assay: peptide or protein array; HuProt human proteome microarray; 5 ug/5 ml biotin-labelled LUBAC or OTULIN in solution, 1 h at room temperature; Cy5-streptavidin, scanned at 635 nm; BSA as negative control; hits: Z-score >= 3 and I_(Mean_Ratio) >= 1.4. The note with it: both partners purified.
In the case of B1, the binding result was “binds”.

As for B2, the binding result is reported as “binds”. For B3, the binding result is recorded as “binds”.

As to B4, the binding result is given as “binds”. On to B5, for which the binding result is “binds”. Consider B6, for which the binding result is “binds”. In the case of B7, the binding result was “binds”.

Regarding B8, the binding result is “binds”.

As to B9, the binding result is recorded as “binds”. With B10, the binding result is recorded as “binds”. In the case of B11 it was “binds”; in that of B12, “binds”. As for B13, the binding result is listed as “binds”.
